This note sets out measurements from the supplement of paper PMC11780869.

The test system of this data set is Bacillus subtilis. Kind of data set: cleaved RNA product abundance (RNA/gDNA barcode ratio) relative to median wild-type variant (ratio to wild type); higher = more accumulation of the downstream cleavage product. In short, it runs like this: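 In LB at 37°C, B. subtilis cultures went from OD600 0.0003 to 0.3. Their chromosomes held barcoded reporter mRNAs, truncated aprE or tetM, with RNase Y cleavage-site windows mutagenized via oligos at a 9% error rate. Cleaved RNA, chosen by gel, was reverse transcribed and barcode-sequenced alongside genomic DNA barcodes with UMI collapsing, giving a per-construct RNA:gDNA ratio scaled to the median construct with the unmutated site. This scaled ratio is termed cleaved product abundance.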

The mark [1] stands for this setting: experiment (reporter, strain, medium): exp 4a: truncated aprE reporter, strain BJT201 with 2% xylose (RNase J1 expressed), cleavage site: cggR-gapA (positions -7 to +36 mutated).
Setting [2] is: experiment (reporter, strain, medium): exp 2b: truncated aprE reporter, strain BJT200, cleavage site: cggR-gapA (positions -7 to +36 mutated).
Setting [3] is: experiment (reporter, strain, medium): exp 8a: truncated aprE reporter, strain BJT201 with 2% xylose (RNase J1 expressed), cleavage site: glnRA (positions -5 to +31 mutated).

With “ACAGACGAAGGAGCCGCAAAGAAGTTATTATGGGATGAATAATCCCTGAATATAAATATCTCTCACTTATTTAAA”, the “cleaved RNA product abundance” value under setting [1] turned out to be 0.663.

On to “ACAGACGAAGGAGCCGCAAAGAAGTTATTAACGGATGAATAATCTCTCAATATAAATATCTCTCACTTATTTAAA”, for which the “cleaved RNA product abundance” value reads like this: under setting [2], 0.0813; under setting [1], 0.183.

“CGACATGTCCCGCTTCTTTCATTAATCAGTTAGCAACTGTTTTGCTATATACATTTACTTTTTAAGAGGAGGAAT”: the “cleaved RNA product abundance” value under setting [3] stood at 0.903.

As for “ACAGACGAAGGAGCCGCAAAGAAGTTATTAAGGGATGAATAAACCCTAAATATAAATATCTCTCACTTATTTAAA”, the “cleaved RNA product abundance” value under setting [1] is 0.4.

Regarding “ACAGACGAAGGAGCCGCAAAGAAGTTATTAAGGGATGAATAATCCCTCAAGATAAATATCTCTCACTTATTTAAA”, the “cleaved RNA product abundance” value was 0.217 under setting [2]; 0.256 under setting [1]; 0.289 (experiment (reporter, strain, medium): exp 6: tetM reporter, strain 168, cleavage site: cggR-gapA (positions -7 to +36 mutated)).

“ACAGACGAAGGAGCCGCAAAGAAGTTATTAAGGGATGAATAACCCCTCTATATAAATATCTCTCACTTATTTAAA”: the “cleaved RNA product abundance” value under setting [1] is 0.229.

For “CGACATGTCCCGCTTCTTTCATTAATCCTTTACCAACTGTTTTGCTATATACATTTACCTTTTAAGAGGAGGAAT”, the “cleaved RNA product abundance” value under setting [3] stood at 0.125.

Take “ACAGACGAAGGAGCCGCAAAGAAGTTATTTAGTGATGAATAATCCCTCAATATAAATATCTCTCACTTATTTAAA”: the “cleaved RNA product abundance” value was 0.0988 under setting [2] and 0.111 under setting [1].

Take “ACAGACGAAGGAGCCGCAAAGAAGTTATTTAGGGATGAATAATCTCTCAATATAAATATCTCTCACTTATTTAAA”: the “cleaved RNA product abundance” value under setting [1] came to 0.646.

On to “ACAGACGAAGGAGCCGCAAAGATGTTATTAAGGGATTAATAATCCCTCAATATAAATATCTCTCACTTATTTAAA”, for which, under setting [1], the “cleaved RNA product abundance” value worked out at 0.703.

Regarding “CGACATGTCCCGCTTCTTTCATTAATCCGTTAGCATCTGTTTTGCTATATTCATTTACCTTTTAAGAGGAGGAAT”, the “cleaved RNA product abundance” value under setting [3] is 0.31.

On to “CGACATGTCCCGCTTCTTTCATTAATGCGTTAGCAATTGTTTTGCTATATACATTTACCTTTTAAGAGGAGGAAT”, for which, under setting [3], the “cleaved RNA product abundance” value came out at 0.995.

As for “CGACATGTCCCGCTTCTTTCATTAAGCCGTTAGCAACTGTTTTGTTATATACATTTACCTTTTAAGAGGAGGAAT”, the “cleaved RNA product abundance” value under setting [3] was determined as 0.364.

“ACAGACGAAGGAGCCGCAAAGAAGTTATTAAGGGATGAATAATCCCTCAATATATAGATCTCTCACTTATTTAAA”: the “cleaved RNA product abundance” value under setting [1] amounted to 0.77.

Consider “CGACATGTCCCGCTTCTTTCATTAATCCGATAGCAACTGTTTTGCTAGATACATTTACCTTTTAAGAGGAGGAAT”, for which, under setting [3], the “cleaved RNA product abundance” value came out at 0.354.

Turning to “ACAGACGAAGGAGCCGCAAACAAGTTATTAAGGGATCAATAATCCCTCAATATAAATATCTCTCACTTATTTAAA”, under setting [1], the “cleaved RNA product abundance” value stood at 0.443.

Turning to “ACAGACGAAGGAGCCGCAAAGAAGTTATTAAGGGGTAAATAATCCCTCAATATAAATATCTCTCACTTATTTAAA”, under setting [1], the “cleaved RNA product abundance” value worked out at 0.708.

On to “ACAGACGAAGGAGCCGCAAAGAAGTTATTAAGGCATGAATAATCCCTCATTATAAATATCTCTCACTTATTTAAA”, for which the “cleaved RNA product abundance” value came out at 0.0915 under setting [2] and 0.0852 under setting [1].

“ACAGACGAAGGAGCCGCAAAGAAGTTATTAAGGGATGAATAATCCCTCAATATATATATTTCTCACTTATTTAAA”: the “cleaved RNA product abundance” value under setting [1] worked out at 0.817.

As for “CGACATGTCCCGCTTCTTTCATTAATCCGTTACCAACTTTTTTGCTATATACATTTACCTTTTAAGAGGAGGAAT”, under setting [3], the “cleaved RNA product abundance” value was determined as 0.225.

For “ACAGACGAAGGAGCCGCAAAGAAGTTATTAAGGGATGAATAGTCCCTCATTATAAATATCTCTCACTTATTTAAA”, the “cleaved RNA product abundance” value under setting [1] was found to be 0.235.

Regarding “ACAGACGAAGGAGCCGCAAAGAAGTTAGTAATGGATGAATAATCCCTCAATATAAATATCTCTCACTTATTTAAA”, the “cleaved RNA product abundance” value under setting [1] turned out to be 0.141.

As to “ACAGACGAAGGAGCCGCAAAGAAGTTATTCAGGGATGATTAATCCCTCAATATAAATATCTCTCACTTATTTAAA”, the “cleaved RNA product abundance” value under setting [2] was 0.532.

In the case of “CGACATGTCCCGCTTCTTTCATTAATCCGTTATCAACTGTTTTGCCATATACATTTACCTTTTAAGAGGAGGAAT”, under setting [3], the “cleaved RNA product abundance” value amounted to 0.145.

On to “ACAGACGAAGGAGCCGCAAAGAAGTTATTAAGAGATGAATAATCCCTTAATATAAATATCTCTCACTTATTTAAA”, for which the “cleaved RNA product abundance” value was determined as 0.727 under setting [2] and 0.431 under setting [1].

For “ACAGACGAAGGAGCCGCAAAGAAGTTATTAAGGGCAGAATAATCCCTCAATATAAATATCTCTCACTTATTTAAA”, the “cleaved RNA product abundance” value under setting [2] is 0.174.

Consider “ACAGACGAAGGAGCCGCAAAGAAATTATTAAGGGATGAATAATCCCTCAATTTAAATATCTCTCACTTATTTAAA”, for which the “cleaved RNA product abundance” value under setting [1] was determined as 0.153.

As to “CGACATGTCCCGCTTCTTTCATTAATCCGTTAGAAACTGTTTTCCTATATACATTTACCTTTTAAGAGGAGGAAT”, under setting [3], the “cleaved RNA product abundance” value came to 0.317.

For the sequence “ACAGACGAAGGAGCCGCAAAGAAGTTATTAAGGGATGAACAATTCCTCAATATAAATATCTCTCACTTATTTAAA”, under setting [1], the “cleaved RNA product abundance” value amounted to 0.44.

“ACAGACGAAGGAGCCGCAAAGAAATTATTAAGGGATGAATAATCCATCAATATAAATATCTCTCACTTATTTAAA”: the “cleaved RNA product abundance” value was 0.163 under setting [2] and 0.201 under setting [1].

Turning to “ACAGACGAAGGAGCCGCAAAGAATTTATTAAGGGATGAATAACCCCTCAATATAAATATCTCTCACTTATTTAAA”, under setting [1], the “cleaved RNA product abundance” value came to 0.452.

“ACAGACGAAGGAGCCGCAAAGCATTTATTAAGGGATGAATAATCCCTCAATATAAATATCTCTCACTTATTTAAA”: the “cleaved RNA product abundance” value under setting [1] was 0.256.

On to “CGACATGTCCCGCTTCTTTCATTATTCCGTTAGCAACTGTTTTGCTATGTACATTTACCTTTTAAGAGGAGGAAT”, for which the “cleaved RNA product abundance” value under setting [3] was 0.184.

Take “ACAGACGAAGGAGCCGCAAAGAAGTTATTAAGGGATGAATAATCGTTCAATATAAATATCTCTCACTTATTTAAA”: the “cleaved RNA product abundance” value under setting [1] was 0.0943.

With “ACAGACGAAGGAGCCGCAAAGAAGTTATTAACGGATGAATAATCCCTCATTATAAATATCTCTCACTTATTTAAA”, the “cleaved RNA product abundance” value by setting is: under setting [2], 0.128; under setting [1], 0.141.

As for “ACAGACGAAGGAGCCGCAAAGAAGTTATTAAGGGATGAATTATCCTTCAATATAAATATCTCTCACTTATTTAAA”, the “cleaved RNA product abundance” value is, setting by setting: under setting [2], 0.232; under setting [1], 0.284.

With “CGACATGTCCCGCTTCTTTCATTAATCCGTTAGCATCTATTTTGCTATATACATTTACCTTTTAAGAGGAGGAAT”, the “cleaved RNA product abundance” value under setting [3] came out at 1.53.

As to “ACAGACGAAGGAGCCGCAAAGAAGTTATTAAGGGCTTAATAATCCCTCAATATAAATATCTCTCACTTATTTAAA”, the “cleaved RNA product abundance” value under setting [1] is 0.481.

In the case of “ACAGACGAAGGAGCCGCAAAGAAGTTATTAAGGGATGAATAATCCCACAATATAAACATCTCTCACTTATTTAAA”, the “cleaved RNA product abundance” value under setting [1] is 0.277.

As to “ACAGACGAAGGAGCCGCAAAGAAGTTATTAAGGGAAGAATAATCCCTCAATATATATATCTCTCACTTATTTAAA”, the “cleaved RNA product abundance” value runs as follows: under setting [2], 0.393; under setting [1], 0.563.

For “ACAGACGAAGGAGCCGCAAAGAAGTTATTAAGGGATGAATAATCTCTCAATATAAAAATCTCTCACTTATTTAAA”, the “cleaved RNA product abundance” value reads like this: under setting [2], 0.464; under setting [1], 0.43.

Regarding “ACAGACGAAGGAGCCGCAAAGAAGTTATAAAAGGATGAATAATCCCTCAATATAAATATCTCTCACTTATTTAAA”, the “cleaved RNA product abundance” value turned out to be 0.153 under setting [2] and 0.165 under setting [1].

Consider “ACAGACGAAGGAGCCGCAAAGAAGCTATTAAGGGATGAATAATCCCTGAATATAAATATCTCTCACTTATTTAAA”, for which the “cleaved RNA product abundance” value under setting [1] turned out to be 0.343.

As to “ACAGACGAAGGAGCCGCAAAGAAGTTATTAAGGGATGAAAAATCCCTCAATATTAATATCTCTCACTTATTTAAA”, the “cleaved RNA product abundance” value was 0.199 under setting [2] and 0.157 under setting [1].

As to “ACAGACGAAGGAGCCGCAAAGAAGTTATTAAGTGATGAATAATCCATCAATATAAATATCTCTCACTTATTTAAA”, the “cleaved RNA product abundance” value runs as follows: under setting [2], 0.153; under setting [1], 0.165.

“CGACATGTCCCGCTTCTTTCATTAAACCGTTAGCAACTGTTTTTCTATATACATTTACCTTTTAAGAGGAGGAAT”: the “cleaved RNA product abundance” value under setting [3] was determined as 0.464.

For “ACAGACGAAGGAGCCGCAAAGAAGTTATTAAAGGATAAATAATCCCTCAATATAAATATCTCTCACTTATTTAAA”, the “cleaved RNA product abundance” value amounted to 0.108 under setting [2] and 0.139 under setting [1].

Turning to “ACAGACGAAGGAGCCGCAAAGAAGTTTTTAAGGGATGACTAATCCCTCAATATAAATATCTCTCACTTATTTAAA”, the “cleaved RNA product abundance” value is, setting by setting: under setting [2], 0.201; under setting [1], 0.212.

As for “ACAGACGAAGGAGCCGCAAAGAAGTTATTAATGGACGAATAATCCCTCAATATAAATATCTCTCACTTATTTAAA”, the “cleaved RNA product abundance” value is, setting by setting: under setting [2], 0.0737; under setting [1], 0.0953.

For the sequence “ACAGACGAAGGAGCCGCAAGGAAGTTATTAAGGGATAAATAATCCCTCAATATAAATATCTCTCACTTATTTAAA”, the “cleaved RNA product abundance” value amounted to 0.888 under setting [2] and 0.919 under setting [1].

In the case of “CGACATGTCCCGCTTCTTTCATTAATCCATTATCAACTTTTTTGCTATATACATTTACCTTTTAAGAGGAGGAAT”, under setting [3], the “cleaved RNA product abundance” value stood at 0.311.

As for “CGACATGTCCCGCTTCTTTCATTAATCCGTTAGCAACTGTTTTGCTATATACTTATACCTTTTAAGAGGAGGAAT”, under setting [3], the “cleaved RNA product abundance” value was determined as 0.926.

Regarding “ACAGACGAAGGAGCCGCAAAGAAGTTATTAAGGGATGAATAATCCTTCAAGATAAATATCTCTCACTTATTTAAA”, the “cleaved RNA product abundance” value under setting [1] amounted to 0.162.

Regarding “ACAGACGAAGGAGCCGCAAAGAAGTTATTAAGGGATGTATAATCCGTCAATATAAATATCTCTCACTTATTTAAA”, under setting [1], the “cleaved RNA product abundance” value stood at 0.187.
